{
  "source": "patent US20190085033A1",
  "about": "(published 2019)",
  "binders": {"B1": {"name": "PGT121 (antibody, V domains shown)", "VH": "QMQLQESGPGLVKPSETLSLTCSVSGASISDSYWSWIRRSPGKGLEWIGYVHKSGDTNYSPSLKSRVNLSLDTSKNQVSLSLVAATAADSGKYYCARTLHGRRIYGIVAFNEWFTYFYMDVWGNGTQVTVSS", "VL": "SDISVAPGETARISCGEKSLGSRAVQWYQHRAGQAPSLIIYNNQDRPSGIPERFSGSPDSPFGTTATLTITSVEAGDEADYYCHIWDSRVPTKWVFGGGTTLTVL", "notes": "also called mature PGT121"}},
  "target": "BG505-gp120 10MUT-KO (HIV-1, strain BG505)",
  "test": "SPR, monomeric gp120",
  "data": [
    {"binder": "B1", "values": [
      {"measurement": "Kd", "result": 435, "unit": "nM"}
    ]}
  ]
}
